{
  "source": "paper PMC6031666",
  "test_system": "His51",
  "assay": "NMR",
  "settings": "298 K; 100 mM NaCl, 5 mM CaCl2; 20 mM deuterated MES (pH 5.5, 6.0, 6.5, 7.2, 8.5) or 20 mM deuterated Tris (pH 8.5), 0.02% NaN3; Inhibitor-bound (Bz-Nle-Lys-Arg-Arg-B(OH)2, a tetrahedral transition-state mimic), NS2B-bound, folded. Two complex forms are in equilibrium.",
  "data": [
    {"substance": "NS3 serine protease domain (NS3pro) in complex with NS2B cofactor segment (Dengue virus type 2 (DENV2))", "values": [
      {"measurement": "pKa", "result": "remain fully protonated over the investigated pH range (5.5–8.5)"}
    ]}
  ]
}
